Percent crosslinked (plateau after oxidation with 4-DPS) and percent crosslinked spontaneously (Ox-, no oxidant) data for 1 substance are collected here from publication PMC8985213.

The assay concerns the target BamD_(R49C) (E. coli) (UniProt P0AC02). Description: cross-linking.

^MBP−76EspP_(D1218C) gave a percent crosslinked (plateau after oxidation with 4-DPS) of 40% and a percent crosslinked spontaneously (Ox-, no oxidant) of 10%.
